How the values were obtained:
[1] = target: T1, protein A (UniProt P38507 37-477); assay: phage ELISA on protein A, heated 80 C against unheated, three data points
T1 construct: also called pA
Procedure: (§1) After biotinylation of the phage, for each clone, a 100 μl sample of phage was transferred to a thin-wall PCR tube (and the remaining biotinylated phage was kept on ice). The tube was placed in a PCR apparatus for incubation at 80° C. during 10 min (temperature of cover lid: 85° C.). After heating, the tube was rapidly cooled down to 4° C. in the PCR apparatus.
(§2) ELISA plates were coated and blocked as described in Section 4. The samples were transferred to the empty wells of coated/blocked ELISA plates, and incubated for 2 hours at room temperature. Unbound phage was then removed by washing the wells 6-ties with PBS. For detection, Str-HRP (from a 1 mg/ml stock in PBS) were diluted 1/2000 in PBS supplemented with 2% v/v TWEEN 20 (Polyoxyethylensorbitan monolaurate; for protein A-based ELISA) or 2% w/v BSA (for protein L-based ELISA), and 100 μl of the resulting solution was added to each ELISA well. After incubation for 1 hour at room temperature, the unbound conjugate was removed by washing the wells 6-times with PBS. For colorimetric reaction, a 10 mg/ml solution of TMB (tetramethylbenzidine) was diluted 100-fold in a buffer of 0.1 M sodium acetate, pH 6.0. Next, hydrogen peroxyde was added (0.4 ul per ml of buffer/TMB, and 100 ul of this solution was added to each ELISA well. After color (blue) developed, the reaction was stopped by adding 50 μl of 1 M sulfuric acid per well (color turns to yellow). The optical density was recorded at 450 nm.
These clones were characterized for refoldability on phage (according to the protocol of Section 5, but with three data points being taken) and in solution.

[2] = target: T1, protein A; assay: phage ELISA on protein A, heated 80 C against unheated, titration (Section 5)
Procedure: as §1, §2

[3] = target: T1, protein A; assay: phage ELISA on protein A, multivalent phage 5x10^11 TU/ml, 80 C 10 min against untreated
Procedure: The ELISA wells were coated overnight at 4° C. with one of the following ligands: 10 μg/ml of protein A in PBS, 10 μg/ml of mAb 9E10 in PBS, or 3 mg/ml of HEL in 0.1 M NaHCO₃ buffer, pH 9.6. After blocking the wells with PBS containing 2% Tween-20 (PBST), a dilution series of phage in PBST was incubated for 2 h. After washing with PBS, bound phage were detected as follows. […] In assays for binding to protein A, the phage (4×10¹⁰ TU/ml in PBS) was first biotinylated at 4° C. with biotin-NHS (Perbio) (50 μM final concentration) and detected by sequential addition of streptavidin-horseradish peroxidase conjugate (1 μg/ml) (Sigma-Aldrich) in PBST, and substrate as above.

[4] = target: T2, hen egg lysozyme (hen, UniProt P00698 19-147); assay: phage ELISA on immobilised HEL
T2 construct: also called HEL; hen egg white lysozyme
T2 sequence (P00698 19-147): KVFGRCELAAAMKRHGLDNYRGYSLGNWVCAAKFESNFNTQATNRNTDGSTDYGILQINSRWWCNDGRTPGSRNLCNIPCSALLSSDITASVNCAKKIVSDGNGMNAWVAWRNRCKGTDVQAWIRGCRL
Procedure: Phage ELISA assays. The ELISA wells were coated overnight at 4° C. with one of the following ligands: 10 μg/ml of protein A in PBS, 10 μg/ml of mAb 9E10 in PBS, or 3 mg/ml of HEL in 0.1 M NaHCO₃ buffer, pH 9.6. After blocking the wells with PBS containing 2% Tween-20 (PBST), a dilution series of phage in PBST was incubated for 2 h. After washing with PBS, bound phage were detected as follows. In assays for binding to REL, phage was detected directly using a conjugate of horseradish peroxidase with an anti-M13 monoclonal antibody (Amersham) using 3,3′,5,5′-tetramethylbenzidine as substrate.

B1: HEL4 (other)
VH: EVQLLESGGGLVQPGGSLRLSCAASGFRISDEDMGWVRQAPGKGLEWVSSIYGPSGSTYYADSVKGRFTISRDNSKNTLYLQMNSLRAEDTAVYYCASALEPLSEPLGFWGQGTLVTVSS
notes: Human VH dAb against hen egg lysozyme; also called dAb HEL4; Fd-myc-HEL4
Q: How did the “Refoldability on phage (protein A binding retained after heating)” value [1] turn out when B1 was run?
A: 82%

Q: What about the “% refolding (protein A binding retained after heating)” value [2] of the same binder?
A: 18.5%

Q: What about the “fold reduction of binding after heating” value [3] of the same binder?
A: 3 fold

Q: Does B1 bind [4]?
A: binds

Reference: patent US20090005257A1 (published 2009)
